Laboratory results taken from the RNAGym collection of RNA variant scans (doi:10.1093/molbev/msab373).

B1: Azoarcus group I ribozyme (parent)
chain: GUGCCUUGCGCCGGGAAACCACGCAAGGGAUGGUGUCAAAUUCGGCGAAACCUAAGCGCCCGCCCGGGCGUAUGGCAACGCCGAGCCAAGCUUCGGCGCCUGCGCCGAUGAAGGUGUAGAGACUAGACGGCACCCACCUAAGGCAAACGCUAUGGUGAAGGCAUAGUCCAGGGAGUGGCGAAAGUCACACAAACCGG

Variants of: B1
Experiment: reverse-splicing fitness (ratio to wild type); higher = more active; in vitro selection; Mg2+ level not given
How it was run: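 An in vitro group I ribozyme library with randomized positions was T7-transcribed and gel-purified. In triplicate, 10 pmol RNA in EPPS pH 7.5 was reacted with 50 pmoles of a 30-nt RNA substrate for 1 h at 37 °C across several added MgCl2 levels (1–48 mM), then stopped with EDTA. Products were reverse transcribed from a substrate-complementary primer, PCR-amplified and sequenced (HiSeq 4000). Fitness is a variant's read proportion after selection over that before, normalised to wild type.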

Going from C82U A111G A120U A145G C150U U176A to C82U A111G A120G C169U U176G, the reverse-splicing fitness falls from 0.00999 to 0.00533.

Compared with C82U A111G A120G C169U U176A, C82U A111G A120G C169U U176C is lower in reverse-splicing fitness: 0.023 for the first, 0.0174 for the second.

Compared with C82U A111G A120U A145G C169U U176C, C82U A111G A120U A145G C169U U176A is lower in reverse-splicing fitness: 0.00362 for the first, 0.00337 for the second.

First: C82U A111G A120U A145G C169U U176G
Second: C82U A111G A120U A145C C150U C169G U176A
The reverse-splicing fitness of the first is lower: 0.00171 for the first, 0.00322 for the second.

First: C82U A111G A120U A145C C150U C169G U176C
Second: C82U A111G A120U A145C C150U C169G U176G
The reverse-splicing fitness of the first is higher: 0.00203 for the first, 0.00171 for the second.

First: C82U A111G A120U A145C C150U C169U U176G
Second: C82U A111G A120U A145C C150U C169U U176C
The reverse-splicing fitness of the first is lower: 0.00188 for the first, 0.00222 for the second.

First: C82U A111G A120U A145C C150U C169U U176A
Second: C82U A111G A120G C150U C169U
The reverse-splicing fitness of the first is lower: 0.00264 for the first, 0.00996 for the second.

Going from C82U A111G A120U A145C C150A C169A U176A to C82U A111G A120U A145C C150A C169A U176C, the reverse-splicing fitness falls from 0.00213 to 0.00185.

First: C82U A111G A120U A145C C150A C169A U176G
Second: C82U A111G A120U A145G C150G U176G
The reverse-splicing fitness of the first is lower: 0.00186 for the first, 0.00276 for the second.

First: C82U A111G A120U A145G C150G U176C
Second: C82U A111G A120U A145G C150G U176A
The reverse-splicing fitness of the first is higher: 0.00719 for the first, 0.00494 for the second.

First: C82U A111G A120U A145G C169G U176G
Second: C82U A111G A120U A145G C169G U176C
The reverse-splicing fitness of the first is lower: 0.00169 for the first, 0.00294 for the second.

First: C82U A111G A120U A145G C169G U176A
Second: C82U A111G A120U A145C C150A C169G U176G
The reverse-splicing fitness of the first is higher: 0.00278 for the first, 0.0017 for the second.

First: C82U A111G A120U A145C C150A C169G U176C
Second: C82U A111G A120U A145C C150A C169G U176A
The reverse-splicing fitness of the first is higher: 0.00206 for the first, 0.00205 for the second.

Compared with C82U A111G A120U A145G C150G C169U, C82U A111G A120U A145G C150G C169G is higher in reverse-splicing fitness: 0.00654 for the first, 0.00671 for the second.

Compared with C82U A111G A120U A145G C150G C169A, C82U A111G A120U A145G C150U is higher in reverse-splicing fitness: 0.00768 for the first, 0.0339 for the second.

Going from C82U A111G A120U A145G C150G to C82U A111G A120U A145G C150A, the reverse-splicing fitness rises from 0.00906 to 0.01.

Going from C82U A111G A120U A145U C150A C169G U176C to C82U A111G A120U A145U C150A C169G U176G, the reverse-splicing fitness falls from 0.00253 to 0.00148.

Compared with C82U A111G A120U A145U C150A C169G U176A, C82U A111G A120U A145G U176A is higher in reverse-splicing fitness: 0.00245 for the first, 0.0106 for the second.

First: C82U A111G A120U A145G U176G
Second: C82U A111G A120U A145G U176C
The reverse-splicing fitness of the first is lower: 0.00369 for the first, 0.0172 for the second.

First: C82U A111G A120U A145G C150G C169G U176G
Second: C82U A111G A120U A145G C150G C169G U176C
The reverse-splicing fitness of the first is lower: 0.00255 for the first, 0.00401 for the second.

Going from C82U A111G A120U A145G C150G C169G U176A to C82U A111G A120U A145G C150G C169A U176A, the reverse-splicing fitness rises from 0.0073 to 0.0084.

First: C82U A111G A120U A145G C150G C169A U176G
Second: C82U A111G A120U A145G C150G C169A U176C
The reverse-splicing fitness of the first is lower: 0.00326 for the first, 0.00712 for the second.

Going from C82U A111G A120U A145G C150A C169G U176A to C82U A111G A120U A145G C150A C169G U176C, the reverse-splicing fitness falls from 0.0124 to 0.00574.

First: C82U A111G A120U A145G C150A C169G U176G
Second: C82U A111G A120U A145U C150A
The reverse-splicing fitness of the first is lower: 0.00221 for the first, 0.00631 for the second.

Compared with C82U A111G A120U A145G C150U C169A U176G, C82U A111G A120U A145G C150U C169A U176C is higher in reverse-splicing fitness: 0.00217 for the first, 0.00369 for the second.

Going from C82U A111G A120U A145G C150U C169A U176A to C82U A111G A120U A145G C169A, the reverse-splicing fitness falls from 0.00487 to 0.00248.

Going from C82U A111G A120U A145G C169G to C82U A111G A120U A145G C169U, the reverse-splicing fitness rises from 0.00348 to 0.00406.

First: C82U A111G A120U A145G C150A C169A U176G
Second: C82U A111G A120U A145G C150A C169A U176A
The reverse-splicing fitness of the first is lower: 0.00258 for the first, 0.00624 for the second.

Going from C82U A111G A120U A145G C150A C169A U176C to C82U A111G A120U A145C C150A U176C, the reverse-splicing fitness falls from 0.00365 to 0.00275.

First: C82U A111G A120U A145C C150A U176A
Second: C82U A111G A120U A145C C150A U176G
The reverse-splicing fitness of the first is higher: 0.00269 for the first, 0.002 for the second.

First: C82U A111G A120U A145G C169A U176C
Second: C82U A111G A120U A145G C169A U176G
The reverse-splicing fitness of the first is higher: 0.00292 for the first, 0.00159 for the second.

Compared with C82U A111G A120U A145G C169A U176A, C82U A111G A120G U176G is higher in reverse-splicing fitness: 0.00258 for the first, 0.00466 for the second.

Compared with C82U A111G A120G U176A, C82U A111G A120G U176C is higher in reverse-splicing fitness: 0.013 for the first, 0.0144 for the second.

Compared with C82U A111G A120U A145C C169A U176C, C82U A111G A120U A145C C169A U176G is lower in reverse-splicing fitness: 0.00194 for the first, 0.00179 for the second.

Compared with C82U A111G A120U A145C C169A U176A, C82U A111G A120U A145C C169U U176A is higher in reverse-splicing fitness: 0.00176 for the first, 0.00232 for the second.

Compared with C82U A111G A120U A145C C169U U176C, C82U A111G A120U A145C C169U U176G is lower in reverse-splicing fitness: 0.00209 for the first, 0.00126 for the second.

Compared with C82U A111G A120U A145U C150A C169U U176G, C82U A111G A120U A145U C150A C169U U176C is higher in reverse-splicing fitness: 0.00158 for the first, 0.00216 for the second.

First: C82U A111G A120U A145U C150A C169U U176A
Second: C82U A111G A120U A145C C150A C169U U176G
The reverse-splicing fitness of the first is higher: 0.00278 for the first, 0.00196 for the second.

Compared with C82U A111G A120U A145C C150A C169U U176A, C82U A111G A120U A145C C150A C169U U176C is higher in reverse-splicing fitness: 0.00182 for the first, 0.00235 for the second.

Going from C82U A111G A120U A145C C150A C169G to C82U A111G A120U A145C C150A C169U, the reverse-splicing fitness rises from 0.00197 to 0.00217.

Going from C82U A111G A120U A145C C150A C169A to C82U A111G A120G C169A U176G, the reverse-splicing fitness rises from 0.00199 to 0.00398.

Compared with C82U A111G A120G C169A U176A, C82U A111G A120G C169A U176C is higher in reverse-splicing fitness: 0.0167 for the first, 0.023 for the second.
